Results as given in publication PMC3144414.
pKd: −log10 of the molar value.

Experiments:
[1] = target: GDP microtubules (polymerised from porcine brain tubulin with GTP) (porcine) (UniProt P02550); assay: in vitro MT-binding assay by epifluorescence microscopy
[2] = target: GMPCPP microtubules (polymerised from porcine brain tubulin with GMPCPP) (porcine) (UniProt P02550); assay: as above

- pKd [1]: 6.03
- pKd [2]: 6.60
Substance: KIF5C monomeric motor domain (K351) (domain or fragment)
